Experiments:
Experiment in all cases: SEC; gel permeation chromatography on Superdex-200, purified receptors-Fc loaded in 400 µl, eluted in PBS, absorbance at 280 nm
hFn14-Fc (human) = hFn14-Fc (human) (UniProt Q9NP84)
hTACI-Fc = target: hTACI-Fc
atacicept = target: atacicept

Substance: hFn14-Fc (from UniProt Q9NP84 28-80) (Fc fusion)
- stoichiometry N (hFn14-Fc (human)): 2

Substance: hTACI-Fc (Fc fusion)
- stoichiometry N (hTACI-Fc): 2

Substance: atacicept (Fc fusion)
- stoichiometry N (atacicept): 2

— article PMC3631189
